Reference: patent US20230235013A1 (MABSOLVE, published 2023)
Numbering of substitutions follows the chain as printed. Names may count otherwise.

B1: anti-CD20 human IgG1 L234R/G236R (antibody)
heavy: not shown
light: QIVLSQSPAILSASPGEKVTMTCRASSSVSYIHWFQQKPGSSPKPWIYATSNLASGVPVRFSGSGSGTSYSLTISRVEAEDAATYYCQQWTSNPPTFGGGTKLEIKRTVAAPSVFIFPPSDEQLKSGTASVVCLLNNFYPREAKVQWKVDNALQSGNSQESVTEQDSKDSTYSLSSTLTLSKADYEKHKVYACEVTHQGLSSPVTKSFNRGEC
notes: also called 2-41
B2: anti-CD20 human IgG1 L234A/L235T/G236R (antibody)
heavy: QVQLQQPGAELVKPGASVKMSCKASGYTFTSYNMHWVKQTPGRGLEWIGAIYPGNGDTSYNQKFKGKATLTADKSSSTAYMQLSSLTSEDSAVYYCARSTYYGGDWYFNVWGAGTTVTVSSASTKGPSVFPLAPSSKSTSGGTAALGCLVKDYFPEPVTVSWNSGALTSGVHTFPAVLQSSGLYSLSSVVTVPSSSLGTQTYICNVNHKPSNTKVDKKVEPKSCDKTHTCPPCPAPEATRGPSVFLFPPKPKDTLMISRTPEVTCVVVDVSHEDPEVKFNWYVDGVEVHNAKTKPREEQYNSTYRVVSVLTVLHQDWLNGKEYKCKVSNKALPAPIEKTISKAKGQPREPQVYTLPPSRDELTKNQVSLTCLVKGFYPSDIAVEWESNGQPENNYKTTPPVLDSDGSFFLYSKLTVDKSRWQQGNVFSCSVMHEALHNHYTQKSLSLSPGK
light: B1 light
notes: also called 2-5; 1-15
B3: anti-CD20 human IgG1 L234D/L235H/G236R (antibody)
heavy: QVQLQQPGAELVKPGASVKMSCKASGYTFTSYNMHWVKQTPGRGLEWIGAIYPGNGDTSYNQKFKGKATLTADKSSSTAYMQLSSLTSEDSAVYYCARSTYYGGDWYFNVWGAGTTVTVSSASTKGPSVFPLAPSSKSTSGGTAALGCLVKDYFPEPVTVSWNSGALTSGVHTFPAVLQSSGLYSLSSVVTVPSSSLGTQTYICNVNHKPSNTKVDKKVEPKSCDKTHTCPPCPAPEDHRGPSVFLFPPKPKDTLMISRTPEVTCVVVDVSHEDPEVKFNWYVDGVEVHNAKTKPREEQYNSTYRVVSVLTVLHQDWLNGKEYKCKVSNKALPAPIEKTISKAKGQPREPQVYTLPPSRDELTKNQVSLTCLVKGFYPSDIAVEWESNGQPENNYKTTPPVLDSDGSFFLYSKLTVDKSRWQQGNVFSCSVMHEALHNHYTQKSLSLSPGK
light: B1 light
notes: also called 2-6; 1-21
B4: anti-CD20 human IgG1 L234A/G236R (antibody)
heavy: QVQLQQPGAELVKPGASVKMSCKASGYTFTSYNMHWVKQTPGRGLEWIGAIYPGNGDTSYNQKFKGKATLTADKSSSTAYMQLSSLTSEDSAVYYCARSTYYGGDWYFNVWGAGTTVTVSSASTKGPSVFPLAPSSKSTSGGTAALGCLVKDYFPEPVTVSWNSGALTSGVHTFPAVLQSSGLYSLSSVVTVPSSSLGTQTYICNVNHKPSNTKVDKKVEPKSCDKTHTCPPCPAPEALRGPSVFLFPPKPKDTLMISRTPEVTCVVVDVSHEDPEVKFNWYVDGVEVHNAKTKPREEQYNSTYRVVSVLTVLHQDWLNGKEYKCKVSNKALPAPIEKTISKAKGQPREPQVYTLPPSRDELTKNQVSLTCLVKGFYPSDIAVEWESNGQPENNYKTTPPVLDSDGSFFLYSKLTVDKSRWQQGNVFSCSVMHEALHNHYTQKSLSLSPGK
light: B1 light
notes: also called 1-9
B5: anti-CD20 human IgG1 L234A/L235A/G236R (antibody)
heavy: not shown
light: B1 light
notes: also called 2-2; 1-2
B6: anti-CD20 human IgG1 L234T/L235V/G236R (antibody)
heavy: B3 heavy with D238T, H239V
light: B1 light
notes: also called 2-64
B7: anti-CD20 human IgG1 L234S/L235V/G236R (antibody)
heavy: B3 heavy with D238S, H239V
light: B1 light
notes: also called 2-53
B8: anti-CD20 human IgG1 L234D/L235S/G236R (antibody)
heavy: B3 heavy with H239S
light: B1 light
notes: also called 2-10; 1-29
B9: anti-CD20 human IgG1 G236R/L328R (antibody)
heavy: not shown
light: B1 light
notes: also called 2-68
B10: anti-CD20 human IgG1 L234D/G236R (antibody)
heavy: not shown
light: B1 light
notes: also called 2-8; 1-24
B11: anti-CD20 human IgG1 L234T/G236R (antibody)
heavy: not shown
light: B1 light
notes: also called 2-59; 1-159
B12: anti-CD20 human IgG1 L234H/L235S/G236R (antibody)
heavy: B3 heavy with D238H, H239S
light: B1 light
notes: also called 2-21; 1-74
B13: anti-CD20 human IgG1 L234R/L235Q/G236R (antibody)
heavy: B3 heavy with D238R, H239Q
light: B1 light
notes: also called 2-42
B14: anti-CD20 human IgG1 L235G/G236R (antibody)
heavy: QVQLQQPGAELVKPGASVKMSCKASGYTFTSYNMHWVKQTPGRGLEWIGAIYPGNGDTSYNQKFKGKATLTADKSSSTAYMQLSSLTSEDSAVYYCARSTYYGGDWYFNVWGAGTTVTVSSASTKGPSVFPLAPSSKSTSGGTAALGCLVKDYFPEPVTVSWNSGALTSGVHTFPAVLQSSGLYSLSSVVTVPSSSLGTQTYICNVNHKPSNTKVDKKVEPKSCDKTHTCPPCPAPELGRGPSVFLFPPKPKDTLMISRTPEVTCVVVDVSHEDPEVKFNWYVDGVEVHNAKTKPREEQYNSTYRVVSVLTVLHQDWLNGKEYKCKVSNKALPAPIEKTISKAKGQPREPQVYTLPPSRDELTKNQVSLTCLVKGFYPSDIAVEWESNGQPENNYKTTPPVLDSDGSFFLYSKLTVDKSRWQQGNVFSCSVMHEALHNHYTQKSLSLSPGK
light: B1 light
notes: also called 2-83
B15: anti-CD20 human IgG1 L234K/L235Q/G236R (antibody)
heavy: B3 heavy with D238K, H239Q
light: B1 light
notes: also called 2-22; 1-87
B16: anti-CD20 human IgG1 L235V/F243L/R292P/Y300L/P396L (antibody)
heavy: B3 heavy with D238L, H239V, R240G, F247L, R296P, Y304L, P400L
light: B1 light
notes: also called 2-72
B17: anti-CD20 human IgG1 L234Q/L235T/G236R (antibody)
heavy: B3 heavy with D238Q, H239T
light: B1 light
notes: also called 1-120
B18: anti-CD20 human IgG1 L234Q/L235D/G236R (antibody)
heavy: B3 heavy with D238Q, H239D
light: B1 light
notes: also called 2-28; copies: 2 + 2
B19: anti-CD20 human IgG1 L234R/L235R/G236R (antibody)
heavy: B3 heavy with D238R, H239R
light: B1 light
notes: also called 2-43; copies: 2 + 2
B20: anti-CD20 human IgG1 L234Q/L235R/G236R (antibody)
heavy: B3 heavy with D238Q, H239R
light: B1 light
notes: also called 2-32; copies: 2 + 2

Each binder was assayed against T1, Histidine-tagged recombinant human FcγRI (CD64) (human, UniProt P12314 16-288, limits assumed) (assay: SPR, His-FcγRI captured; mean;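 note: biacore T200 SPR at 25 °C, anti-His surface capturing FcγRI, Fc-variant antibodies injected at 100 µg/mL for 1 min, signal near injection end minus third buffer blank, three repeats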).
T1 construct: bought
Experimental: (§1) Binding analysis was carried out by surface plasmon resonance at 25° C. using a Biacore® T200 instrument with Biacore® T200 control software. The sample compartment was held at 5° C. The running buffer (HBS-EP+) consisted of 0.01 M HEPES pH 7.4, containing 0.15 M NaCl, 3 mM EDTA, and 0.05% v/v Surfactant P20. Methods were run using the manufacturer's standard method wizards as described in the Biacore® T200 Instrument Handbook.
(§2) The cell was activated by treatment with EDC/NHS for 7 min. The antibody was diluted to 10 μg/mL in 10 mM sodium acetate pH 5.0 and injected for 7 min at 5 μL/min. The flow cell was deactivated by injection of 1M ethanolamine for 7 min. This process was repeated in the absence of anti-his antibody on a separate flow cell to generate a reference surface. […] Samples of purified antibodies comprising variant Fc regions (1 mg/mL in PBS) were diluted with running buffer to 100 μg/mL and were injected for 1 min at 30 μL/min and allowed to disassociate for 2 min. Between each cycle, the chip was regenerated by injection of 10 mM glycine pH 3.0 for 0.5 min at a flow rate of 30 μL/min and recharged with a fresh injection of FcγRI. At the beginning of each experiment, three blank cycles were run, with buffer alone being injected instead of test sample. The average SPR signal (relative to the reference cell) was measured in a window approximately 8 to 13 seconds before the injection of test sample (baseline) and approximately 3 to 8 seconds before the end of injection (response). The response of the third of the blank (buffer) samples was subtracted from the response of each test sample in order to allow for any dissociation of the bound FcγRI giving a corrected response for each test sample. The whole experiment was repeated three times with the test samples being analysed in different orders each time.

| Corrected response (RU), Mean | Binder |
| --- | --- |
| 5.2 RU | B1 |
| 14.3 RU | B2 |
| 5.2 RU | B3 |
| 70.4 RU | B4 |
| 4.4 RU | B5 |
| 3.9 RU | B6 |
| 2.4 RU | B7 |
| 3.4 RU | B8 |

What follows are binders tested against T1, Histidine-tagged recombinant human … (assay: SPR, His-FcγRI captured; Expt 1;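 note: SPR at 25 °C on anti-His antibody chip capturing FcγRI, Fc-variant antibodies injected at 100 µg/mL for 1 min, signal near end of injection minus buffer blank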).
Experimental: as §1, §2

| Corrected response (RU) | Binder |
| --- | --- |
| 14.6 RU | B2 |
| 8.8 RU | B9 |
| 4.3 RU | B3 |
| 6.3 RU | B5 |
| 135 RU | B10 |
| 156 RU | B11 |
| 0.7 RU | B7 |
| 0.7 RU | B12 |
| -1 RU | B13 |

These binders were tested against T1, Histidine-tagged recombinant human … (assay: SPR, His-FcγRI captured; Expt 2;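 note: biacore T200 SPR at 25 °C, Fc-variant antibodies at 100 µg/mL flowed 1 min over anti-His-captured receptor, signal read near injection end minus third buffer blank; antibody analyte injected at 100 µg/mL for 1 min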).

| Corrected response (RU) | Binder |
| --- | --- |
| 125 RU | B14 |
| 6.1 RU | B15 |
| 3.9 RU | B1 |
| 11.2 RU | B2 |
| 3.8 RU | B3 |
| 49.3 RU | B4 |
| 77.7 RU | B10 |
| 3.6 RU | B6 |
| 2.7 RU | B8 |

The binders below were run against T1, Histidine-tagged recombinant human … (assay: SPR, His-FcγRI captured; Expt 3;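 note: biacore T200 SPR at 25 °C, Fc-variant antibodies at 100 µg/mL flowed 1 min over anti-His-captured FcγRI, signal taken just before injection end minus a buffer blank cycle; antibody analyte injected at 100 µg/mL for 1 min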).

| Corrected response (RU) | Binder |
| --- | --- |
| 2510 RU | B16 |
| 5.8 RU | B15 |
| 10.7 RU | B1 |
| 17.3 RU | B2 |
| 65 RU | B9 |
| 7.7 RU | B3 |
| 74.7 RU | B4 |
| 5.2 RU | B5 |
| 5.4 RU | B6 |
| 4.3 RU | B7 |
| 5.9 RU | B12 |
| 3.6 RU | B8 |
| 7.3 RU | B13 |
| 1.4 RU | B17 |

What follows are binders tested against T2, Histidine-tagged recombinant human FcγRI (CD64) (human, UniProt P12314 16-288) (assay: SPR, culture supernatant, captured His-FcγRI;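 note: biacore T200 SPR at 25 °C, anti-His capture, supernatants of HEK293 cells expressing IgG1 Fc variants injected 1 min, reference-subtracted response read 55 s after injection start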).
T2 construct: bought; also called Sino Biological Cat. No. 12056-H08H

| Mean binding response | Binder |
| --- | --- |
| 18.9 RU | B18 |
| 17.2 RU | B19 |
| 20.1 RU | B20 |
